Common to all, as to test: BLI
For assay [1], the target named is T1, human FcRn protein (MednaBio, E1032) (human, UniProt P55899 24-297; P61769 21-119).
T1 construct: Bought; assays at pH 6
As for the experimental part: (§1) These IgG mutants were tested for binding to a panel of human Fc receptors (FcRs), including FcRn, using the Octet Red96 System (ForteBio, Model #Red96). Human FcR proteins were purchased commercially (FcRn, MednaBio, E1032; FcRI, MednaBio, E1031; FcRIIA, MednaBio, E1033; FcRIIB/C, MednaBio, E1034; FcRIIIA-F158, MednaBio, E1036; FcRIIIA-V158, MednaBio, E1035; FcRIIIB, MednaBio, E1037). All Fey receptor assays were performed at pH 7.2; all FcRn assays were performed at pH 6. The Fey receptors were loaded onto anti-penta-HIS1K (ForteBio, Cat #18-5122) biosensors at a concentration of 20 μg/mL. The loaded biosensors was then be dipped into an 8-point 1:3 dilution series of the test IgG molecules (including controls and the mutants described herein) in PBS with 0.1% BSA, 0.02% Tween-20 (pH 7.2) at a starting concentration of 300 nM. Kinetic analysis was performed using a 1:1 binding model and global fitting.

The target of assay [2] is T2, human FcRIIA protein (MednaBio, E1033) (human, UniProt P12318 34-218, limits assumed).
T2 construct: Bought; also called FcγRIIA
T2 sequence (looked up): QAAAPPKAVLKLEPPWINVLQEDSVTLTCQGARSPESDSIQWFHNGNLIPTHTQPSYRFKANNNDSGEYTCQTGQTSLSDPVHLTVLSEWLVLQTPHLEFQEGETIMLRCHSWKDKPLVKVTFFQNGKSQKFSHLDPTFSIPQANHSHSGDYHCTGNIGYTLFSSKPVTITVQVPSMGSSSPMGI
As for the experimental part:
as §1

Assay [3] concerns the target T1, human FcRn protein (MednaBio, E1032). An outline of the steps: (§2)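 Binding was measured by biolayer interferometry on an Octet Red96 System. Commercial human Fc receptor proteins were loaded at 20 μg/mL onto anti-penta-HIS biosensors, which were then dipped into an 8-point 1:3 dilution series of test IgG starting at 300 nM in PBS with 0.1% BSA and 0.02% Tween-20, at pH 7.2 for Fcγ receptors and pH 6 for FcRn. Kd, kon and koff were obtained by global fitting, with data fitted to a 1:1 binding model.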
The source holds these as a separate data set.

Assay [4] addresses T2, human FcRIIA protein (MednaBio, E1033). The method, boiled down:
as §2
The source holds these as a separate data set.

For assay [5], the target named is T1, human FcRn protein (MednaBio, E1032). An outline of the steps: as §2
The source holds these as a separate data set.

Assay [6] deals with T2, human FcRIIA protein (MednaBio, E1033). The method, boiled down:
as §2
The source holds these as a separate data set.

Assay [7] deals with T1, human FcRn protein (MednaBio, E1032). An outline of the steps: as §2
This is another data set of the same source.

Assay [8] has as its target T2, human FcRIIA protein (MednaBio, E1033). The method, boiled down: as §2
The source holds these as a separate data set.

Assay [9] addresses T1, human FcRn protein (MednaBio, E1032). An outline of the steps: as §2
This is another data set of the same source.

In assay [10] the target is T2, human FcRIIA protein (MednaBio, E1033). The method, boiled down:
as §2
This is another data set of the same source.

Assay [11] has as its target T1, human FcRn protein (MednaBio, E1032). As for the experimental part: as §1
The source holds these as a separate data set.

In assay [12] the target is T2, human FcRIIA protein (MednaBio, E1033). As for the experimental part:
as §1
The source holds these as a separate data set.

Assay [13] has as its target T3, human FcRI protein (MednaBio, E1031) (human, UniProt P12314 16-288, limits assumed).
T3 construct: Bought; loaded on anti-penta-HIS biosensors; also called FcγRI
The method, boiled down:
as §2

In assay [14] the target is T4, human FcRIIB/C protein (MednaBio, E1034) (human, UniProt P31994 43-217, limits assumed).
T4 construct: Bought as FcRIIB/C; also called FcγRIIB; CD32B
T4 sequence (looked up): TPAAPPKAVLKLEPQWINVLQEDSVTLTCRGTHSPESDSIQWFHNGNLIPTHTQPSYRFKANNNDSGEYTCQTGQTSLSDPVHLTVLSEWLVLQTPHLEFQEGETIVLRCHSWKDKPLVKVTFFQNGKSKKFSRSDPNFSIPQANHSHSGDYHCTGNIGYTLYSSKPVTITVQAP
An outline of the steps:
as §2

Assay [15] has as its target T1, human FcRn protein (MednaBio, E1032). An outline of the steps: as §2
This is another data set of the same source.

Assay [16] addresses T2, human FcRIIA protein (MednaBio, E1033). An outline of the steps: as §2
The source holds these as a separate data set.

Assay [17] deals with T3, human FcRI protein (MednaBio, E1031). The method, boiled down: as §2
This is another data set of the same source.

The target in assay [18] is T4, human FcRIIB/C protein (MednaBio, E1034). The method, boiled down: as §2
This is another data set of the same source.

The target of assay [19] is T5, human FcRIIIA-V158 protein (MednaBio, E1035) (human, UniProt P08637 17-208).
T5 construct: Bought; also called FcγRIIIA(V); FcgRIIIA(V)
T5 sequence (P08637 17-208 F176V): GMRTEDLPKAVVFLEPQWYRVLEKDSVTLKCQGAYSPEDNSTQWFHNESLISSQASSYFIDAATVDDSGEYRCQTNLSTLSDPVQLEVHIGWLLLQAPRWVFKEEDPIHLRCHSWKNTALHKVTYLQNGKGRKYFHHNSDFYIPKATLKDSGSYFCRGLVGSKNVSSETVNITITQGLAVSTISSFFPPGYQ
An outline of the steps: as §2

Assay [20] concerns the target T6, human FcRIIIB protein (MednaBio, E1037) (human, UniProt O75015 17-200).
T6 construct: Bought; also called FcγRIIIB; FcgRIIIB
The method, boiled down:
as §2

Assay [21] deals with T7, human FcRIIIA-F158 protein (MednaBio, E1036) (human, UniProt P08637 17-208).
T7 construct: Bought; also called FcγRIIIA(F)
T7 sequence (P08637 17-208 limits assumed): as the sequence (P08637 17-208 F176V) above, with V160F counted along it
An outline of the steps: as §2

Residue numbers refer to the chain shown, from its start. Read-outs that look alike come from different tables or passages of the source.

T1 sequence (P55899 24-297 limits assumed, form in doubt, chain 1 of 2): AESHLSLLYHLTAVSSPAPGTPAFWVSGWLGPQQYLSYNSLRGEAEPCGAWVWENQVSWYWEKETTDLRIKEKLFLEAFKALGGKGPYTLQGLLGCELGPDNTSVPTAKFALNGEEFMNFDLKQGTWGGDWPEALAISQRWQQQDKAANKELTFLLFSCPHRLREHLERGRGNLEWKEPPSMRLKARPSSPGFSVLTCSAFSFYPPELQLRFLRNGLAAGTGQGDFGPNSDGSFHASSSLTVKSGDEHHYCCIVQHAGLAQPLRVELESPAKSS
T1 sequence (P61769 21-119 limits assumed, form in doubt, chain 2 of 2): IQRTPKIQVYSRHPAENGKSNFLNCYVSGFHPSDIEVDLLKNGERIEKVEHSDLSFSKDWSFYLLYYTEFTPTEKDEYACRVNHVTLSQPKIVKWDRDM
T3 sequence (P12314 16-288 limits assumed): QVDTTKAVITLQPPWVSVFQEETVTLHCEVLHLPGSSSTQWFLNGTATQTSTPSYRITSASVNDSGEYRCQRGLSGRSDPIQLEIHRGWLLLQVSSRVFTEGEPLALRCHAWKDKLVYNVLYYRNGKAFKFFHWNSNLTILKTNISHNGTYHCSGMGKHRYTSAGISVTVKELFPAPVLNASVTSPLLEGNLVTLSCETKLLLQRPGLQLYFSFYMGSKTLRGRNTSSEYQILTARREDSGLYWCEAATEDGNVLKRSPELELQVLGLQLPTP
T6 sequence (O75015 17-200 limits assumed): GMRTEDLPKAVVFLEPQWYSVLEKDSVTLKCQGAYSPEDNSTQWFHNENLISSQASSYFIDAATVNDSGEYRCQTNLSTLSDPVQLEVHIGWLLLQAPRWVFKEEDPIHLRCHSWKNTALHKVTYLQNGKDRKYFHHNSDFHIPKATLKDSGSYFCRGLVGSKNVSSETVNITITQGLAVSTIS

B1: wild-type human IgG2 control (antibody)
heavy: EVQLVQSGAEVKKPGESLRISCKGSGYSFSTYWISWVRQMPGKGLEWMGKIYPGDSYTNYSPSFQGQVTISADKSISTAYLQWSSLKASDTAMYYCARGYGIFDYWGQGTLVTVSSASTKGPSVFPLAPCSRSTSESTAALGCLVKDYFPEPVTVSWNSGALTSGVHTFPAVLQSSGLYSLSSVVTVPSSNFGTQTYTCNVDHKPSNTKVDKTVERKCCVECPPCPAPPVAGPSVFLFPPKPKDTLMISRTPEVTCVVVDVSHEDPEVQFNWYVDGVEVHNAKTKPREEQFNSTFRVVSVLTVVHQDWLNGKEYKCKVSNKGLPAPIEKTISKTKGQPREPQVYTLPPSREEMTKNQVSLTCLVKGFYPSDIAVEWESNGQPENNYKTTPPMLDSDGSFFLYSKLTVDKSRWQQGNVFSCSVMHEALHNHYTQKSLSLSPGK
light: SYELTQPPSVSVSPGQTASITCSGDNIGDQYAHWYQQKPGQSPVLVIYQDKNRPSGIPERFSGSNSGNTATLTISGTQAMDEADYYCATYTGFGSLAVFGGGTKLTVLGQPKAAPSVTLFPPSSEELQANKATLVCLISDFYPGAVTVAWKADSSPVKAGVETTTPSKQSNNKYAASSYLSLTPEQWKSHRSYSCQVTHEGSTVEKTVAPTECS
notes: Control IgG
Regarding B1, the Kd came to 10 nM in assay [1]; 89 nM in assay [2]; 10 nM in [3]; 89 nM in assay [4]; 10 nM in assay [5]; 89 nM in assay [6]. In addition, the dissociation constant (Kd) in [7] came out at 10 nM; in [8], 89 nM; in assay [9] it was 10 nM; in assay [10], 89 nM; in [11] it was 10 nM; in [12], 89 nM. Moreover, the dissociation rate constant (koff) in [1] came to 0.0099 s⁻¹; in assay [2], 0.039 s⁻¹; in assay [3], 0.0099 s⁻¹; in [4], 0.039 s⁻¹; in assay [5], 0.0099 s⁻¹; in [6] it was 0.039 s⁻¹. The koff was 0.0099 s⁻¹ in assay [7]; 0.039 s⁻¹ in assay [8]; 0.0099 s⁻¹ in assay [9]; 0.039 s⁻¹ in [10]; 0.0099 s⁻¹ in [11]; 0.039 s⁻¹ in [12]. The kon in assay [1] came out at 990000 M⁻¹ s⁻¹; in assay [2] it was 440000 M⁻¹ s⁻¹; in [3], 990000 M⁻¹ s⁻¹; in assay [4], 440000 M⁻¹ s⁻¹; in [5], 990000 M⁻¹ s⁻¹; in assay [6] it was 440000 M⁻¹ s⁻¹. For the same molecule, the kon in [7] turned out to be 990000 M⁻¹ s⁻¹; in assay [8], 440000 M⁻¹ s⁻¹; in assay [9], 990000 M⁻¹ s⁻¹; in [10], 440000 M⁻¹ s⁻¹; in assay [11], 990000 M⁻¹ s⁻¹; in assay [12], 440000 M⁻¹ s⁻¹.

B2: anti-CD137 IgG4 with Fc variant G4m25 (antibody)
heavy: EVQLVQSGAEVKKPGESLRISCKGSGYSFSTYWISWVRQMPGKGLEWMGKIYPGDSYTNYSPSFQGQVTISADKSISTAYLQWSSLKASDTAMYYCARGYGIFDYWGQGTLVTVSSASTKGPSVFPLAPCSRSTSESTAALGCLVKDYFPEPVTVSWNSGALTSGVHTFPAVLQSSGLYSLSSVVTVPSSSLGTKTYTCNVDHKPSNTKVDKRVESKYGPPCPPCPAPEFLGPSVFLFPPKPKDTLMISRTPEVTCVVVDVSQEDPEEQFNWYVDGVEVHNAKTKPREEQFNSTYRVVSVLTVLHQDWLNGKEYKCKVSNKGLPSSIEKTISKAKGQPREPQVYTLPPSQEEMTKNQVSLTCLVKGFYPSDIAVEWESNGQPENNYKTTPPVLDSDGSFFLYSRLTVDKSRWQEGNVFSCSVMHEALHNHYTQKSLSLSLGK
light: B1 light
notes: copies: 2 + 2
In the case of B2, the Kd in assay [13] was 46 nM; in assay [14], 240 nM; in assay [15] it was 19 nM; in [16], 660 nM. For the same molecule, the koff in [13] was determined as 0.017 s⁻¹; in assay [14], 0.03 s⁻¹; in assay [15] it was 0.009 s⁻¹; in assay [16], 0.038 s⁻¹. Besides, the on-rate constant (kon) in [13] is 380000 M⁻¹ s⁻¹; in [14], 130000 M⁻¹ s⁻¹; in assay [15], 480000 M⁻¹ s⁻¹; in assay [16], 57000 M⁻¹ s⁻¹.

B3: anti-CD137 IgG4 with Fc variant G4m8 (antibody)
heavy: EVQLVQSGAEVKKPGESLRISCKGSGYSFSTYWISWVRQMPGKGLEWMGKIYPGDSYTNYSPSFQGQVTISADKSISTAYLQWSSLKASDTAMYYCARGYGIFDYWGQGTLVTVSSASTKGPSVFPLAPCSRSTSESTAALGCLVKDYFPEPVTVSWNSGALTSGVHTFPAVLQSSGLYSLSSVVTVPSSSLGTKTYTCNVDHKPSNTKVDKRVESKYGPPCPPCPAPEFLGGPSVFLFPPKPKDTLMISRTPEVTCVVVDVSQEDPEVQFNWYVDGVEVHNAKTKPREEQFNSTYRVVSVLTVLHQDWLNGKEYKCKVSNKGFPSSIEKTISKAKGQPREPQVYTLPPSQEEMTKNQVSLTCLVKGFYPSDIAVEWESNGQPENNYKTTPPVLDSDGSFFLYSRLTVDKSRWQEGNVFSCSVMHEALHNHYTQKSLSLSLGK
light: B1 light
notes: copies: 2 + 2
As to B3, the Kd in assay [17] turned out to be 3.8 nM; in [18], 89 nM; in assay [9] it was 20 nM; in [10], 260 nM. Moreover, the koff in assay [17] is 0.0028 s⁻¹; in assay [18], 0.048 s⁻¹; in assay [9] it was 0.012 s⁻¹; in assay [10], 0.1 s⁻¹. Also, the kon was 720000 M⁻¹ s⁻¹ in [17], 530000 M⁻¹ s⁻¹ in [18], 610000 M⁻¹ s⁻¹ in assay [9] and 390000 M⁻¹ s⁻¹ in assay [10]. The binding result in assay [19], in [20] and in assay [21] was “no binding (tested: 300 nM)” throughout.

B4: anti-CD137 IgG4 with Fc variant G4m19 (antibody)
heavy: EVQLVQSGAEVKKPGESLRISCKGSGYSFSTYWISWVRQMPGKGLEWMGKIYPGDSYTNYSPSFQGQVTISADKSISTAYLQWSSLKASDTAMYYCARGYGIFDYWGQGTLVTVSSASTKGPSVFPLAPCSRSTSESTAALGCLVKDYFPEPVTVSWNSGALTSGVHTFPAVLQSSGLYSLSSVVTVPSSSLGTKTYTCNVDHKPSNTKVDKRVESKYGPPCPPCPAPEFLSVFLFPPKPKDTLMISRTPEVTCVVVDVEQEDPEVQFNWYVDGVEVHNAKTKPREEQFNSTYRVVSVLTVLHQDWLNGKEYKCKVSNKGFPSSIEKTISKAKGQPREPQVYTLPPSQEEMTKNQVSLTCLVKGFYPSDIAVEWESNGQPENNYKTTPPVLDSDGSFFLYSRLTVDKSRWQEGNVFSCSVMHEALHNHYTQKSLSLSLGK
light: B1 light
notes: copies: 2 + 2
With B4, in [15], the Kd is 13 nM, the off-rate constant (koff) is 0.009 s⁻¹ and the kon was 690000 M⁻¹ s⁻¹.

B5: anti-CD137 IgG4 with Fc variant G4m27 (antibody)
heavy: B2 heavy with S262E, E268V
light: B1 light
notes: copies: 2 + 2
As to B5, in [13], binding was characterised by a dissociation constant (Kd) of 66 nM, the koff stood at 0.025 s⁻¹ and the kon was determined as 370000 M⁻¹ s⁻¹. In assay [14], the Kd is 310 nM, the koff was 0.039 s⁻¹ and the kon was 130000 M⁻¹ s⁻¹. In [15], this molecule yielded a Kd of 23 nM, a koff of 0.01 s⁻¹ and an on-rate (kon) of 450000 M⁻¹ s⁻¹.
